Patent publication US20250326827A1 (SCHOLAR ROCK, published 2025)

Target: latent myostatin (human, UniProt O14793 24-266; O14793 267-375)
Assay: cell-based or functional assay

B1: Apitegromab (antibody, human IgG4 S228P, lambda, V domains shown)
VH: QVQLVESGGGVVQPGRSLRLSCAASGFTFSSYGMHWVRQAPGKGLEWVAVISYDGSNKYYADSVKGRFTISRDNSKNTLYLQMNSLRAEDTAVYYCARDLLVRFLEWSHYYGMDVWGQGTTVTVSS
VL: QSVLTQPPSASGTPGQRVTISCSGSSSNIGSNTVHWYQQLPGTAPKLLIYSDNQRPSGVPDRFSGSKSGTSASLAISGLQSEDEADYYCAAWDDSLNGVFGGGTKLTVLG
target engagement, as measured by latent myostatin (serum level after treatment vs baseline; 2 mg/kg and 20 mg/kg IV every 4 weeks): 100 fold
